We go through 23 molecules from PMC10786891, “Massively parallel profiling of RNA-targeting CRISPR-Cas13d”.

T1: EsCas13d, nuclease-dead (Eubacterium siraeum, UniProt B0MS50, R295A;H300A;R849A;H854A)
T1 sequence: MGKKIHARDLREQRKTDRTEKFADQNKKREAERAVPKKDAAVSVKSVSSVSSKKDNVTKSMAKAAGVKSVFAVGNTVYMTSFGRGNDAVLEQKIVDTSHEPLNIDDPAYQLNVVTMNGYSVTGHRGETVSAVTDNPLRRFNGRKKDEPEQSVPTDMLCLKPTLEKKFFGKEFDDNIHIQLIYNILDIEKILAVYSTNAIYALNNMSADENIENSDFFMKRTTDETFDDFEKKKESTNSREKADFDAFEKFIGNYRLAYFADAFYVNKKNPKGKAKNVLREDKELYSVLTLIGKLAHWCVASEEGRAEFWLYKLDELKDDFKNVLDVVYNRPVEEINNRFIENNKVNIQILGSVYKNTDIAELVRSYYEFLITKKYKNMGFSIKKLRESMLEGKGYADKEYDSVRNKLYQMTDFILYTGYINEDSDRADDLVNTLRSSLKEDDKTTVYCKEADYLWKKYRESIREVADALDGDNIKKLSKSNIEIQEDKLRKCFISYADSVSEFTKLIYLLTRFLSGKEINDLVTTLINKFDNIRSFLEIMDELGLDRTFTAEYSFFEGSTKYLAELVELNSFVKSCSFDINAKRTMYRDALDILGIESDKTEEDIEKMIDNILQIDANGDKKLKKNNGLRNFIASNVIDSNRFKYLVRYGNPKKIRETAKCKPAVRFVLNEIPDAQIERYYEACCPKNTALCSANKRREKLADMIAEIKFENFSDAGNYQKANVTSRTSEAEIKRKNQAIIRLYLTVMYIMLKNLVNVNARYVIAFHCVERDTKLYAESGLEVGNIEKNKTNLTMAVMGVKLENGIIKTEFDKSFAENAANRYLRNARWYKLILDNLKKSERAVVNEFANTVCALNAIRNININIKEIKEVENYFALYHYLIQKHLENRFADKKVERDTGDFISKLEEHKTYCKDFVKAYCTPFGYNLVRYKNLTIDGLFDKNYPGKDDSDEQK

B1: target 1 insC 3' of 13,insU 3' of 5 (mixed)
RNA 1: CACCCGUGCAAAAAUGCAGGGGUCUAAAACUGAGCGGAUAACCUCUCUAUGG
RNA 2: GGGAAUGGAUCCACAUCUACGAAUUCGUACCAUAGAGAGCGUUAUCCGUCUCACCGAGAUCGGAAGAGCACACGU
B2: target 1 C2G,A18U (mixed)
RNA 1: CACCCGUGCAAAAAUGCAGGGGUCUAAAACUGAGCGGAUAACCUCUCUAUGG
RNA 2: GGGAAUGGAUCCACAUCUACGAAUUCGUACCAUUGAGAGGUUAUCCGCUGACCGAGAUCGGAAGAGCACACGU
B3: target 3 insA 3' of 8,insG 3' of 7 (mixed)
RNA 1: CACCCGUGCAAAAUUGCAGGGGUCUAAAACGACCUGAAUAUUUCAGAUCAAA
RNA 2: GGGAAUGGAUCCACAUCUACGAAUUCGUUUUUGAUCUGAAAUAUAUGCAGGUCUGCAGAUCGGAAGAGCACACGU
B4: target 3 insA 3' of 3 (mixed)
RNA 1: CACCCGUGCAAAAUUGCAGGGGUCUAAAACGACCUGAAUAUUUCAGAUCAAA
RNA 2: GGGAAUGGAUCCACAUCUACGAAUUCGUUUUUGAUCUGAAAUAUUCAGGAUCUGCAGAUCGGAAGAGCACACGU
B5: target 3 G3U,U22C (mixed)
RNA 1: CACCCGUGCAAAAUUGCAGGGGUCUAAAACGACCUGAAUAUUUCAGAUCAAA
RNA 2: GGGAAUGGAUCCACAUCUACGAAUUCGUUCUUGAUCUGAAAUAUUCAGUUCUGCAGAUCGGAAGAGCACACGU
B6: target 3 insU 3' of 6,insG 3' of 2 (mixed)
RNA 1: CACCCGUGCAAAAUUGCAGGGGUCUAAAACGACCUGAAUAUUUCAGAUCAAA
RNA 2: GGGAAUGGAUCCACAUCUACGAAUUCGUUUUUGAUCUGAAAUAUUCUAGGUGCUGCAGAUCGGAAGAGCACACGU
B7: target 3 insG 3' of 7,insC 3' of 5 (mixed)
RNA 1: CACCCGUGCAAAAUUGCAGGGGUCUAAAACGACCUGAAUAUUUCAGAUCAAA
RNA 2: GGGAAUGGAUCCACAUCUACGAAUUCGUUUUUGAUCUGAAAUAUUGCACGGUCUGCAGAUCGGAAGAGCACACGU
B8: target 3 insA 3' of 22,insA 3' of 6 (mixed)
RNA 1: CACCCGUGCAAAAUUGCAGGGGUCUAAAACGACCUGAAUAUUUCAGAUCAAA
RNA 2: GGGAAUGGAUCCACAUCUACGAAUUCGUUUAUUGAUCUGAAAUAUUCAAGGUCUGCAGAUCGGAAGAGCACACGU
B9: target 3 A5U,U7G (mixed)
RNA 1: CACCCGUGCAAAAUUGCAGGGGUCUAAAACGACCUGAAUAUUUCAGAUCAAA
RNA 2: GGGAAUGGAUCCACAUCUACGAAUUCGUUUUUGAUCUGAAAUAUGCUGGUCUGCAGAUCGGAAGAGCACACGU
B10: target 3 insA 3' of 22,insA 3' of 14 (mixed)
RNA 1: CACCCGUGCAAAAUUGCAGGGGUCUAAAACGACCUGAAUAUUUCAGAUCAAA
RNA 2: GGGAAUGGAUCCACAUCUACGAAUUCGUUUAUUGAUCUGAAAAUAUUCAGGUCUGCAGAUCGGAAGAGCACACGU
B11: target 3 U2G,U22A (mixed)
RNA 1: CACCCGUGCAAAAUUGCAGGGGUCUAAAACGACCUGAAUAUUUCAGAUCAAA
RNA 2: GGGAAUGGAUCCACAUCUACGAAUUCGUUAUUGAUCUGAAAUAUUCAGGGCUGCAGAUCGGAAGAGCACACGU
B12: target 3 insA 3' of 22,insA 3' of 4 (mixed)
RNA 1: CACCCGUGCAAAAUUGCAGGGGUCUAAAACGACCUGAAUAUUUCAGAUCAAA
RNA 2: GGGAAUGGAUCCACAUCUACGAAUUCGUUUAUUGAUCUGAAAUAUUCAGAGUCUGCAGAUCGGAAGAGCACACGU
B13: target 3 G3C,U22C (mixed)
RNA 1: CACCCGUGCAAAAUUGCAGGGGUCUAAAACGACCUGAAUAUUUCAGAUCAAA
RNA 2: GGGAAUGGAUCCACAUCUACGAAUUCGUUCUUGAUCUGAAAUAUUCAGCUCUGCAGAUCGGAAGAGCACACGU
B14: target 3 U2G,G14A (mixed)
RNA 1: CACCCGUGCAAAAUUGCAGGGGUCUAAAACGACCUGAAUAUUUCAGAUCAAA
RNA 2: GGGAAUGGAUCCACAUCUACGAAUUCGUUUUUGAUCUAAAAUAUUCAGGGCUGCAGAUCGGAAGAGCACACGU
B15: target 3 insG 3' of 8 (mixed)
RNA 1: CACCCGUGCAAAAUUGCAGGGGUCUAAAACGACCUGAAUAUUUCAGAUCAAA
RNA 2: GGGAAUGGAUCCACAUCUACGAAUUCGUUUUUGAUCUGAAAUAUGUCAGGUCUGCAGAUCGGAAGAGCACACGU
B16: target 3 insA 3' of 4,insC 3' of 3 (mixed)
RNA 1: CACCCGUGCAAAAUUGCAGGGGUCUAAAACGACCUGAAUAUUUCAGAUCAAA
RNA 2: GGGAAUGGAUCCACAUCUACGAAUUCGUUUUUGAUCUGAAAUAUUCAGAGCUCUGCAGAUCGGAAGAGCACACGU
B17: target 3 insG 3' of 6 (mixed)
RNA 1: CACCCGUGCAAAAUUGCAGGGGUCUAAAACGACCUGAAUAUUUCAGAUCAAA
RNA 2: GGGAAUGGAUCCACAUCUACGAAUUCGUUUUUGAUCUGAAAUAUUCGAGGUCUGCAGAUCGGAAGAGCACACGU
B18: target 3 U2A,G3U (mixed)
RNA 1: CACCCGUGCAAAAUUGCAGGGGUCUAAAACGACCUGAAUAUUUCAGAUCAAA
RNA 2: GGGAAUGGAUCCACAUCUACGAAUUCGUUUUUGAUCUGAAAUAUUCAGUACUGCAGAUCGGAAGAGCACACGU
B19: target 3 insU 3' of 13,insG 3' of 6 (mixed)
RNA 1: CACCCGUGCAAAAUUGCAGGGGUCUAAAACGACCUGAAUAUUUCAGAUCAAA
RNA 2: GGGAAUGGAUCCACAUCUACGAAUUCGUUUUUGAUCUGAUAAUAUUCGAGGUCUGCAGAUCGGAAGAGCACACGU
B20: target 3 C1A,U2G (mixed)
RNA 1: CACCCGUGCAAAAUUGCAGGGGUCUAAAACGACCUGAAUAUUUCAGAUCAAA
RNA 2: GGGAAUGGAUCCACAUCUACGAAUUCGUUUUUGAUCUGAAAUAUUCAGGGAUGCAGAUCGGAAGAGCACACGU
B21: target 3 insU 3' of 5,insU 3' of 3 (mixed)
RNA 1: CACCCGUGCAAAAUUGCAGGGGUCUAAAACGACCUGAAUAUUUCAGAUCAAA
RNA 2: GGGAAUGGAUCCACAUCUACGAAUUCGUUUUUGAUCUGAAAUAUUCAUGGUUCUGCAGAUCGGAAGAGCACACGU
B22: target 3 insU 3' of 5,insG 3' of 5 (mixed)
RNA 1: CACCCGUGCAAAAUUGCAGGGGUCUAAAACGACCUGAAUAUUUCAGAUCAAA
RNA 2: GGGAAUGGAUCCACAUCUACGAAUUCGUUUUUGAUCUGAAAUAUUCAUGGGUCUGCAGAUCGGAAGAGCACACGU
B23: target 3 C6U,A12G (mixed)
RNA 1: CACCCGUGCAAAAUUGCAGGGGUCUAAAACGACCUGAAUAUUUCAGAUCAAA
RNA 2: GGGAAUGGAUCCACAUCUACGAAUUCGUUUUUGAUCUGAGAUAUUUAGGUCUGCAGAUCGGAAGAGCACACGU

This series concerns the target T1, EsCas13d, nuclease-dead. The series is described as follows: crRNA (strand 1, pre-loaded); Mg2+; 40 mM Tris-HCl pH 7.5, 150 mM NaCl, 6 mM MgCl2, 1 mM DTT, 0.1% Tween-20, 0.2 mg/ml BSA; 25 C; 10 min per concentration, then washed. The note with it: tags: His6-TwinStrep-SUMO cleaved; N-terminal SNAP kept (SNAP-Surface 488); label: 3' end held by stalled T7 RNA polymerase.
For the molecule B1, the Kd was 8.1 ± 0.8 nM.

B2 registered a Kd of 17 ± 1.7 nM.

In turn, B3 yielded a dissociation constant Kd of 72.5 ± 12 nM.

B4 returned a Kd of 25.1 ± 3.45 nM.

On to B5, for which the dissociation constant (Kd) was 28.4 ± 5.25 nM.

Turning to B6, the dissociation constant (Kd) turned out to be 28 ± 5 nM.

Regarding B7, the Kd worked out at 24.4 ± 2.85 nM.

Turning to B8, binding was put at a Kd of 11.1 ± 0.85 nM.

In the case of B9, the Kd is 60.5 ± 7.5 nM.

B10 had a Kd of 94 ± 36 nM.

For the molecule B11, the Kd worked out at 25.6 ± 2.5 nM.

On to B12, for which the affinity, expressed as Kd, was 49 ± 10 nM.

For the molecule B13, the Kd amounted to 28 ± 4 nM.

B14 yielded a Kd of 106 ± 42 nM.

B15 yielded a Kd of 52.5 ± 11.5 nM.

Molecule B16 yielded a Kd of 79.5 ± 24.5 nM.

Turning to B17, binding was characterised by a dissociation constant (Kd) of 8.45 ± 0.75 nM.

Molecule B18 came in with a Kd of 68 ± 14.5 nM.

As to B19, the Kd stood at 88 ± 24.5 nM.

Regarding B20, the Kd is 73.5 ± 22 nM.

In turn, B21 gave a dissociation constant (Kd) of 4.35 ± 0.375 nM.

B22: the Kd came to 4.74 ± 0.56 nM.

B23 returned a Kd of 33 ± 5 nM.

As usually defined, the Kd is the constant that tells how readily two partners part at equilibrium.
